Results from patent US20220195070A1 (Chugai, published 2022).
Positions count from the first letter of the chain named.

B1: SKA0001 (antibody, V domains shown)
VH: QSVEESGGRLVTPGTPLTLTCTVSGFSLSYYAMNWVRQAPGKGLEWIGIIGISGGTYYASWAKGRFTISKSSSTTVDLKMTSPTTEDTATYFCARGGSAWGDLWGQGTLVTVSS
VL: DIVMTQTPSSVSAAVGGTVTINCQASQSISRLLAWYQQKPGQPPKVLMHDASDLASGVPSRFKGSGSGTEYTLTISDLECADAATYYCQSYYWGSSGDIGYPFGGGTEVVVKG
notes: Recombinant rabbit monoclonal from B-cell cloning, expressed in FreeStyle 293-F cells; the first screen used B-cell culture supernatant; also called Anti-SG115 Antibody; rabbit Anti Fc-Mutation Antibody
B2: SKA0028 (antibody, V domains shown)
VH: QSVEESGGRLVTPGTPLTLTCTASGFTISSYHMSWVRQAPGKGLEWIGIIHGSGNMWYASWAKGRFTISRTSTTVDLEITSPTTEDTATYFCARIRFWASSNYYYFYLWGQGTLVTVSS
VL: ALVMTQTPASVSEPVGGTVTINCQASQNIYSNLAWYQQKPGQRPRLLIYGASNLESGVPSRFRGSGSGTEFTLTISDLECADAATYYCQSAYWGNNNDGAFGGGTEVVVKG
notes: as for B1
B3: SKA0046 (antibody, V domains shown)
VH: QEQLVESGGGLVQPEGSLTLTCTASGFSLSSSNYMWWVRQAPGKGLEWIACIHASSSGDTYYANWAKGRFTISKTSSTTVTLQMTSLTAADTATYFCARGGYIYGDGGYNGVAGFSLWGPGTLVTVSS
VL: DVVMTQTPASVSEPVGGTVTIKCQASETIGNALAWYQQKPGQRPKLLIYGASNLESGVPSRFKGSGSGTEFTLTISDVQCDDAATYYCQSIYYSSSADTFFFPFGGGTEVVVKG
notes: as for B1
B4: SKA0009 (antibody, V domains shown)
VH: QSVEESGGRLVTPGTSLTLTCTVSGIDLSSYGMGWVRQAPGMGLEYIGIIYAAGRTYYASWVKGRFIISKTSTTVDLEMTSLTTEDTATYFCARHGSWYAGMDLWGPGTLVTVSS
VL: AIEMTQTPSPVSAAVGGTVSINCQASEDIENYFAWYQQKPGQPPKLLIYDASELASGVPSRFSGSGSGTDFTLTISGVQCDDAATYYCQHADYAASSENTFGGGTEVVVKG
notes: as for B1
B5: SKA0016 (antibody, V domains shown)
VH: QEQLVESGGGLVQPEGSLTLTCTASGFSFSSSDYMCWVRQAPGKGLEWIACIYIGSNGDTFYASWAKGRFTISKTSSTTVTLQMTSLTAADTATYFCARDSRRADDYGTRLDLWGQGTLVTVSS
VL: DIVMTQTPSSVSAAVGGTVTIKCQASQNIYRNLAWYQQKPGQPPKLLIYQASKLESGVPSRFKGSGSGTEFTLTISDLDCDDAASYYCQSISYISSGDTFFWAFGGGTEVVVKG
notes: as for B1
B6: SKA0027 (antibody, V domains shown)
VH: QEQLVESGGGLVQPEGSLTLTCTASGFSFSSSDYMCWVRQAPGKGLEWIGCIYTGSGSTYYASWAKGRFTISKTSSTTVTLQMTSLTAADTATFFCARRGDSYSNYSFKLWGPGTLVTVSS
VL: AFELTQTPASVEAAVGGTVTIKCQASQNIYSNLAWYQQKPGQPPKLLIYTASSLASGVSSRFKGSGSGTEFTLTISDLECDDAATYYCQCTYINNGYGNTFGGGTEVVVKG
notes: as for B1
B7: SKA0052 (antibody, V domains shown)
VH: QSLEESGGDLVKSGASLTLTCTASGFSFSSSYYMCWVRQAPGKGLEWIACIYTGSNGDTYYASWANGRFTISKASSTTVTLQMTSLTAADTATYFCARYTYDDDGDYTSFNLWGPGTLVTVSS
VL: ALVMTQTPSSVSADVGGTVTINCQASQNIYRNLAWYQQKPGQRPKLLIYGASNLEPGVPSRFKGSGSGTEFTLTISDLECDDAATYYCQSVGYSGSVDTFFYAFGGGTEVVVKG
notes: as for B1
B8: SKA0117 (antibody, V domains shown)
VH: QSLEESGGDLVKPEGSLTLTCTASGFSFSSSHYMCWVRQAPGKGLEWIACIYAGSSDNTYYASWAKGRFTISKTSSTTVTLQMTSLTAADTATYFCARDTYGYVGYASAGGFFNLWGPGTLVTVSS
VL: ALVMTQTPASVSAAVGGTVTINCQASHNIYSVLAWYQQKPGQRPRLLIYGASNLESGVPSRFKGSGSGTEYTLTISDLECDDAATYYCQSAYYSSSTGDNAFGGGTEVVVKG
notes: as for B1
B9: SKA0141 (antibody, V domains shown)
VH: QSLEESGGDLVKPGASLTLTCTASGFSFSSSYYMCWVRQAPGKGLEWIACIYAGSSGSTYYASWAKGRFTISKTSSTTVTLQMTSLTAADTATYFCARDGDENMLVGGYFNLWGPGTLVTVSS
VL: B8 VL with A9S, V32N, R45K, S96N, T97A, D99Y
notes: as for B1
B10: SKA0171 (antibody, V domains shown)
VH: QSLEESGGGLVQPEGSLTLSCTASGFSFSSSYYMCWVRQAPGKGLEWIACIYGGNSVITYYANWAKGRFTISETSSTTVTLQMTSLTAADTATYFCAREVHYDYLYTTYGYANLWGPGTLVTVSS
VL: AIKMTQTPASVSAVVGGTVTINCQASETIYSGLAWYQQKPGQPPKLLIYDTANLETGVSSRFKGSGSGTEYTLTISDLECDDAATYFCLYAYYSGGSADNAFGGGTEVVVKG
notes: as for B1

Each binder was assayed against T1, SG115 (human, UniProt P01857 1-328 = IgG part) (assay: ELISA, OD405 against dose (ng/mL, log axis 1-100)).
T1 construct: also called modified IgG heavy chain constant region SG115
T1 sequence (P01857 other isoform, or with tags, fused parts or gaps limits assumed): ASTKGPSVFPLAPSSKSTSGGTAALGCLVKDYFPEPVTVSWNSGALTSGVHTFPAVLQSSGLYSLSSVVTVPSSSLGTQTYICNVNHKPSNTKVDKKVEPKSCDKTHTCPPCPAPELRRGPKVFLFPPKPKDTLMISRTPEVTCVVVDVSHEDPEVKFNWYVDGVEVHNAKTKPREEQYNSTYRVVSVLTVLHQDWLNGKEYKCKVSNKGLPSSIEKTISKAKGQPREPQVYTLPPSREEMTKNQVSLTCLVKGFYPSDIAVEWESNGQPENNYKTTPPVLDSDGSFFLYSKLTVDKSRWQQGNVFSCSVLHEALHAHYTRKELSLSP

| Binder | binding result |
| --- | --- |
| B1 | binds |
| B2 | binds |
| B3 | binds |
| B4 | binds |
| B5 | binds |
| B6 | binds |

What follows are binders tested against T2, SG115v1 (human, UniProt P01857 1-328 = IgG part) (assay: ELISA, OD405 against dose (ng/mL, log axis 1-100)).
T2 construct: Carries the CH2 modifications of SG115 (Arg235, Arg236, Lys239, EU); Construct used in the ELISA is not described beyond the constant region; also called modified IgG heavy chain constant region SG115v1
T2 sequence (P01857 other isoform, or with tags, fused parts or gaps limits assumed): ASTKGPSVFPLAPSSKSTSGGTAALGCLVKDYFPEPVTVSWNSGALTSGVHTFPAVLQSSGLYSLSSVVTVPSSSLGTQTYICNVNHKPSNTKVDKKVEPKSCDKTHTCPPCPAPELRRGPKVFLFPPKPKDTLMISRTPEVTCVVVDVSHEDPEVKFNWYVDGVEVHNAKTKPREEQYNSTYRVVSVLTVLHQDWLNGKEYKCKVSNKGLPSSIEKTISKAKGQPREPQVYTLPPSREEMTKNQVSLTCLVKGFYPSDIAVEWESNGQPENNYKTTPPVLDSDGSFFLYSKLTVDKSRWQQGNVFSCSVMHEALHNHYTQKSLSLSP

| Binder | binding result |
| --- | --- |
| B1 | no binding (tested: about 60 ng/mL) |
| B2 | no binding (tested: about 60 ng/mL) |
| B3 | binds |
| B4 | binds |
| B5 | binds |
| B6 | no binding (tested: about 60 ng/mL) |

The binders below were run against T3, SG115v2 (human, UniProt P01857 1-328 = IgG part) (assay: ELISA, OD405 against dose (ng/mL, log axis 1-100)).
T3 construct: Carries the CH3 modifications of SG115 (Leu428, Ala434, Arg438, Glu440, EU); Construct used in the ELISA is not described beyond the constant region; also called modified IgG heavy chain constant region SG115v2
T3 sequence (P01857 other isoform, or with tags, fused parts or gaps limits assumed): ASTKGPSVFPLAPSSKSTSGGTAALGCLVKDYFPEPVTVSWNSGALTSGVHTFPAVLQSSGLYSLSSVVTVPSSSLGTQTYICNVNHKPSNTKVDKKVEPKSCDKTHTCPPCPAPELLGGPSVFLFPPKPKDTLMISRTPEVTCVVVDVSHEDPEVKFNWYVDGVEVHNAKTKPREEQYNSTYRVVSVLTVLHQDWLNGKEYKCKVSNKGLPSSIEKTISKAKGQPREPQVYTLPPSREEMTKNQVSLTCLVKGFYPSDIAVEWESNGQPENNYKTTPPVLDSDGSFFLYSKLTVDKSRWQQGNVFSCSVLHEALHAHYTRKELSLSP

| Binder | binding result |
| --- | --- |
| B1 | binds |
| B2 | binds |
| B3 | no binding (tested: about 60 ng/mL) |
| B4 | no binding (tested: about 60 ng/mL) |
| B5 | no binding (tested: about 60 ng/mL) |
| B6 | binds |

What follows are binders tested against T4, Glm (human, UniProt P01857 1-328 = IgG part) (assay: ELISA, OD405 against dose (ng/mL, log axis 1-100)).
T4 construct: Construct used in the ELISA is not described beyond the constant region; also called G1m
T4 sequence (P01857 1-328 D239E/L241M limits assumed): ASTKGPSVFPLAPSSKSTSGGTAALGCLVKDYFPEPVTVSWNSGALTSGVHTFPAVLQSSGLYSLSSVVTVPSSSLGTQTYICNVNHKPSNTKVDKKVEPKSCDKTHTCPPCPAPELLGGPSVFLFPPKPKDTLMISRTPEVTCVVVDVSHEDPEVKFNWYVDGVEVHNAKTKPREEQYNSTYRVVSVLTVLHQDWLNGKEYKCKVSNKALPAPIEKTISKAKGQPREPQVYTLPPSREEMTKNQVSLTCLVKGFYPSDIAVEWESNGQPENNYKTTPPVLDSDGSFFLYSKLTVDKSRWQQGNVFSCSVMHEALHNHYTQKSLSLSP

| Binder | binding result |
| --- | --- |
| B1 | no binding (tested: about 60 ng/mL) |
| B2 | no binding (tested: about 60 ng/mL) |
| B3 | no binding (tested: about 60 ng/mL) |
| B4 | no binding (tested: about 60 ng/mL) |
| B5 | no binding (tested: about 60 ng/mL) |
| B6 | no binding (tested: about 60 ng/mL) |

These binders were tested against T5, G4d (human, UniProt P01861 1-325 = IgG part) (assay: ELISA, OD405 against dose (ng/mL, log axis 1-100)).
T5 construct: Construct used in the ELISA is not described beyond the constant region
T5 sequence (P01861 1-325 S108P limits assumed): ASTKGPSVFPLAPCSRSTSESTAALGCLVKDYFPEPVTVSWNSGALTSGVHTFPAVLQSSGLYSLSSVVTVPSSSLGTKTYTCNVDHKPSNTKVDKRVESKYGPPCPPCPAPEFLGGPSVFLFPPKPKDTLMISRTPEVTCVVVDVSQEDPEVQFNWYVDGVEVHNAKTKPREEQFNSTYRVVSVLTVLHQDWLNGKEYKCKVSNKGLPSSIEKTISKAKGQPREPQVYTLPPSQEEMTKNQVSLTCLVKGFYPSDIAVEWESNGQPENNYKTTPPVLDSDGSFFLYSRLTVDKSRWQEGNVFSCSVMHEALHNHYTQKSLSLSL

| Binder | binding result |
| --- | --- |
| B1 | no binding (tested: about 60 ng/mL) |
| B2 | no binding (tested: about 60 ng/mL) |
| B3 | no binding (tested: about 60 ng/mL) |
| B4 | no binding (tested: about 60 ng/mL) |
| B5 | no binding (tested: about 60 ng/mL) |
| B6 | no binding (tested: about 60 ng/mL) |

Biological target: T1, SG115
Assay: ELISA, OD405 against dose (ng/mL, log axis 1-100)
Remark: another data set of the same source

| Binder | binding result |
| --- | --- |
| B7 | binds |
| B8 | binds |
| B9 | binds |
| B10 | binds |

Biological target: T2, SG115v1
Assay: ELISA, OD405 against dose (ng/mL, log axis 1-100)
Remark: another data set of the same source

| Binder | binding result |
| --- | --- |
| B7 | binds |
| B8 | no binding (tested: about 60 ng/mL) |
| B9 | no binding (tested: about 60 ng/mL) |
| B10 | no binding (tested: about 60 ng/mL) |

Biological target: T3, SG115v2
Assay: ELISA, OD405 against dose (ng/mL, log axis 1-100)
Remark: another data set of the same source

| Binder | binding result |
| --- | --- |
| B7 | no binding (tested: about 60 ng/mL) |
| B8 | binds |
| B9 | binds |
| B10 | binds |

Biological target: T4, Glm
Assay: ELISA, OD405 against dose (ng/mL, log axis 1-100)
Remark: another data set of the same source

| Binder | binding result |
| --- | --- |
| B7 | no binding (tested: about 60 ng/mL) |
| B8 | no binding (tested: about 60 ng/mL) |
| B9 | no binding (tested: about 60 ng/mL) |
| B10 | no binding (tested: about 60 ng/mL) |

Biological target: T5, G4d
Assay: ELISA, OD405 against dose (ng/mL, log axis 1-100)
Remark: another data set of the same source

| Binder | binding result |
| --- | --- |
| B7 | no binding (tested: about 60 ng/mL) |
| B8 | no binding (tested: about 60 ng/mL) |
| B9 | no binding (tested: about 60 ng/mL) |
| B10 | no binding (tested: about 60 ng/mL) |

Each binder was assayed against T6, Anti-IL-8 Antibody (assay: SPR (Biacore T200), 25 C, pH 7.4; SKA antibody captured by anti-rabbit IgG, Anti-IL-8 Antibody injected 0-800 nM).
T6 construct: also called anti-human IL-8 antibody; Fc-Mutated Antibody
T6 sequence (constant, as listed by the source limits assumed): as the sequence (P01857 1-328 D239E/L241M limits assumed) above, with L118R, G119R, A210G, A213S, P214S, M311L, N317A, Y319T, Q321R, S323E counted along it
Experimental: To confirm the binding ability of Anti Fc-Mutation Antibodies that show selective binding to SG115v1, KD values of Anti Fc-Mutation Antibodies against Anti-IL-8 Antibody at pH 7.4 were determined at 25 degrees C. using Biacore T200 instrument (GE Healthcare). Sequence of Fc region of Anti-IL-8 Antibody has high similarity to that of Anti-hC5 Antibody.
Anti-rabbit IgG (Abbexa) was immobilized onto FC1 and 2 of a CMS sensor chip using an amine coupling kit (GE Healthcare). For the immobilization of anti-rabbit IgG, HBS-EP+, pH7.4 (GE Healthcare) buffer was used as running buffer. After the immobilization, running buffer was changed to Phosphate pH7.4 buffer (50 mM phosphate buffer containing 150 mM NaCl and 0.05 w/v % P-20, pH 7.4). Each Anti Fc-Mutation Antibody was captured onto FC2 of the sensor chip by anti-rabbit IgG. The amount of Anti Fc-Mutation Antibody to be captured was adjusted so that the number of resonance units (RU) was 100. Anti-IL-8 Antibody was injected at 0, 100, 400, and 800 nM at 10 micro L/min. Sensor surface was regenerated after each cycle with 10 mM Glycine-HCl, pH2.0, which was injected at a flow rate of 30 micro L/min. KD values were obtained using Biacore T200 Evaluation software, version 2.0 (GE Healthcare).

| Binder | Kd | koff | kon |
| --- | --- | --- | --- |
| B3 | 49.6 nM | 0.00209 s⁻¹ | 42000 M⁻¹ s⁻¹ |
| B7 | 47 nM | 0.00431 s⁻¹ | 91700 M⁻¹ s⁻¹ |
| B4 | 36.2 nM | 0.000904 s⁻¹ | 25000 M⁻¹ s⁻¹ |
| B5 | 60 nM | 0.00071 s⁻¹ | 11800 M⁻¹ s⁻¹ |
